Sequences and labels used below:
B1: CIgG4F4A1(RS) (Fc fusion)
chain 1: GPPCPPCPAPEFLGGPSVFLFPPKPKDTLMISRTPEVTCVVVDVSQEDPEVQFNWYVDGVEVHNAKTKPREEQFNSTYRVVSVLTVLHQDWLNGKEYKCKVSNKGLPSSIEKTISKAKGQPREPQVYTLPPCQEEMTKNQVSLWCLVKGFYPSDIAVEWESNGQPENNYKTTPPVLDSDGSFFLYSRLTVDKSRWQEGNVFSCSVMHEALHNHYTQKSLSLSLGKRSDVQLQESGGGLVQAGGSLRLSCAVSGLSFSSMGWFRQPPGKEREFVAAISLYSGSTYYADSVKGRFTISSDNAKSTVYLQMNSLKPEDAAVYFCAADRQRTWSTFYASRQATYNYWGQGTQVTVTS
chain 2: GPPCPPCPAPEFLGGPSVFLFPPKPKDTLMISRTPEVTCVVVDVSQEDPEVQFNWYVDGVEVHNAKTKPREEQFNSTYRVVSVLTVLHQDWLNGKEYKCKVSNKGLPSSIEKTISKAKGQPREPQVCTLPPSQEEMTKNQVSLSCAVKGFYPSDIAVEWESNGQPENNYKTTPPVLDSDGSFFLVSRLTVDKSRWQEGNVFSCSVMHEALHNHYTQKSLSLSLGKRSEVQLLESGGGLVQPGGSLRLSCAASGFTFGNYDMAWVRQAPGKRPEWVSSIDTGGDITHYADSVKGRFTISRDNAKNTLYLQMNSLRPEDTAVYWCATDEEYALGPNEFDYYGQGTLVTVSS
B2: NIgG4F4A1(G4S)3 (Fc fusion)
chain 1: DVQLQESGGGLVQAGGSLRLSCAVSGLSFSSMGWFRQPPGKEREFVAAISLYSGSTYYADSVKGRFTISSDNAKSTVYLQMNSLKPEDAAVYFCAADRQRTWSTFYASRQATYNYWGQGTQVTVTSGGGGSGGGGSGGGGSGPPCPPCPAPEFLGGPSVFLFPPKPKDTLMISRTPEVTCVVVDVSQEDPEVQFNWYVDGVEVHNAKTKPREEQFNSTYRVVSVLTVLHQDWLNGKEYKCKVSNKGLPSSIEKTISKAKGQPREPQVYTLPPCQEEMTKNQVSLWCLVKGFYPSDIAVEWESNGQPENNYKTTPPVLDSDGSFFLYSRLTVDKSRWQEGNVFSCSVMHEALHNHYTQKSLSLSLGK
chain 2: EVQLLESGGGLVQPGGSLRLSCAASGFTFGNYDMAWVRQAPGKRPEWVSSIDTGGDITHYADSVKGRFTISRDNAKNTLYLQMNSLRPEDTAVYWCATDEEYALGPNEFDYYGQGTLVTVSSGGGGSGGGGSGGGGSGPPCPPCPAPEFLGGPSVFLFPPKPKDTLMISRTPEVTCVVVDVSQEDPEVQFNWYVDGVEVHNAKTKPREEQFNSTYRVVSVLTVLHQDWLNGKEYKCKVSNKGLPSSIEKTISKAKGQPREPQVCTLPPSQEEMTKNQVSLSCAVKGFYPSDIAVEWESNGQPENNYKTTPPVLDSDGSFFLVSRLTVDKSRWQEGNVFSCSVMHEALHNHYTQKSLSLSLGK
B3: CIgG4F4A1(G4S)1 (Fc fusion)
chain 1: GPPCPPCPAPEFLGGPSVFLFPPKPKDTLMISRTPEVTCVVVDVSQEDPEVQFNWYVDGVEVHNAKTKPREEQFNSTYRVVSVLTVLHQDWLNGKEYKCKVSNKGLPSSIEKTISKAKGQPREPQVYTLPPCQEEMTKNQVSLWCLVKGFYPSDIAVEWESNGQPENNYKTTPPVLDSDGSFFLYSRLTVDKSRWQEGNVFSCSVMHEALHNHYTQKSLSLSLGKGGGGSDVQLQESGGGLVQAGGSLRLSCAVSGLSFSSMGWFRQPPGKEREFVAAISLYSGSTYYADSVKGRFTISSDNAKSTVYLQMNSLKPEDAAVYFCAADRQRTWSTFYASRQATYNYWGQGTQVTVTS
chain 2: GPPCPPCPAPEFLGGPSVFLFPPKPKDTLMISRTPEVTCVVVDVSQEDPEVQFNWYVDGVEVHNAKTKPREEQFNSTYRVVSVLTVLHQDWLNGKEYKCKVSNKGLPSSIEKTISKAKGQPREPQVCTLPPSQEEMTKNQVSLSCAVKGFYPSDIAVEWESNGQPENNYKTTPPVLDSDGSFFLVSRLTVDKSRWQEGNVFSCSVMHEALHNHYTQKSLSLSLGKGGGGSEVQLLESGGGLVQPGGSLRLSCAASGFTFGNYDMAWVRQAPGKRPEWVSSIDTGGDITHYADSVKGRFTISRDNAKNTLYLQMNSLRPEDTAVYWCATDEEYALGPNEFDYYGQGTLVTVSS

Here are results for 3 molecules from patent US20250171562A1.

This test deals with mixture of three Der p 2 specific recombinant human IgE clones H10, H12, P4E (human) (UniProt P01854). Briefly: RBL-SX38 IgE displacement, FACS.
Chain of mixture of three Der p 2 specific recombinant human IgE clones H10, H12, P4E (human) (P01854 other isoform, or with tags, fused parts or gaps): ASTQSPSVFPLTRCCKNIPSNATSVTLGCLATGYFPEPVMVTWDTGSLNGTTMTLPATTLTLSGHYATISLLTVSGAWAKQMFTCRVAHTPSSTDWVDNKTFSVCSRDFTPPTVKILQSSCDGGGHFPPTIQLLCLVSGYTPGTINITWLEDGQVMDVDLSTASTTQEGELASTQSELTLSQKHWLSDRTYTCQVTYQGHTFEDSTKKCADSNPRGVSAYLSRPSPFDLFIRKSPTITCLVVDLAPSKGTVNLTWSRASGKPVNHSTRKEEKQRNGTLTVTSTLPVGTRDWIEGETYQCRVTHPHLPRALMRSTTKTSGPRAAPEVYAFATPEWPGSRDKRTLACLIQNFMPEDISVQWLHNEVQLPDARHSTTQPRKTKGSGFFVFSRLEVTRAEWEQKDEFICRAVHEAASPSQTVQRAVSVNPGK
In the case of B1, the EC50 was 1.2 nM and the Max effect/effect 1 µM was 99%.

Take B2: the EC50 stood at 44.5 nM and the Max effect/effect 1 µM is 85%.

As to B3, the EC50 was found to be 0.9 nM and the Max effect/effect 1 µM was 100%.

The EC50 is the concentration at which the effect is half-maximal.
